Results reported in US20040131610A1.

Target: Fc gamma receptor (Fc(γ)R) on dendritic cells
Experiment: cell-based or functional assay

For monoclonal antibody 3G4 (ATCC PTA 4545), the DC uptake of apoptotic tumor cells was 300%.
